Data taken from paper PMC2267168, “Competition between Delta and the Abruptex domain of Notch” (BMC Developmental Biology, 2008).
Where two headings read alike, the source gives them in different places. Each block holds one binder with its values, some of them ahead of it.

Experiments:
N21-30:V5:His = target: T1, N21-30:V5:His (Drosophila, UniProt P07207 827-1224); assay: ELISA; competition: 10 ng (2.74 nM) N21-30:Fc or 100 ng (23.2 nM) Dl:Fc on adsorbed N11-20, with increasing amounts of soluble Dl:V5:His or N21-30:V5:His; details: both partners purified
T1 construct: source: Drosophila Schneider cells, transfected, secreted; purified from conditioned medium (ProBond resin)
T1 sequence (looked up): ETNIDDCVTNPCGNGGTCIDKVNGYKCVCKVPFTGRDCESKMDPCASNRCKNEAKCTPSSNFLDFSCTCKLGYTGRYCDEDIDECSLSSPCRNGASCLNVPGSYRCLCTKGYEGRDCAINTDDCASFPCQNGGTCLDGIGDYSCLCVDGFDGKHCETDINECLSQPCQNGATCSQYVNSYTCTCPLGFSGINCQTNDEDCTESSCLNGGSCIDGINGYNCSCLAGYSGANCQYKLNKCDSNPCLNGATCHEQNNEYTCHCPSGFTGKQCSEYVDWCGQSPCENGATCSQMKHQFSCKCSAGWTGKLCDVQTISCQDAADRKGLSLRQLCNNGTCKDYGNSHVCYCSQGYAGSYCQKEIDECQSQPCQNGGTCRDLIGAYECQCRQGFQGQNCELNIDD

N21-30:Fc [1] = target: T2, N21-30:Fc (Drosophila, UniProt P07207 827-1224); assay: as above; details: both partners purified
T2 construct: also called Abruptex region; EGF repeat 21-30 region of Notch; source: Drosophila Schneider cells, transfected, secreted; purified from conditioned medium (Protein A beads); not shown: Fc (human IgG), C-terminal, kept
T2 sequence (looked up): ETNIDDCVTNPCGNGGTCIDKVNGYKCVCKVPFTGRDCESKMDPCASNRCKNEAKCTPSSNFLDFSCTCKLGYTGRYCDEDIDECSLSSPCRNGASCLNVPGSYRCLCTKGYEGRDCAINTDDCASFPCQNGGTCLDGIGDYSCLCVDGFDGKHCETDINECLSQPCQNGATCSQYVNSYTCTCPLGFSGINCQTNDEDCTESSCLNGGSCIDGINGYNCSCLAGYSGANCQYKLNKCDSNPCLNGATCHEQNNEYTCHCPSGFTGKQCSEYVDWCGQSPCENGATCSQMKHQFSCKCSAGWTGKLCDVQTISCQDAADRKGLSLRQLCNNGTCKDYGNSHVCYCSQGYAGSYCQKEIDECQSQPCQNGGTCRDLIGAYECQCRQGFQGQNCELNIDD

N11-14:V5:His [2] = target: T3, N11-14:V5:His (Drosophila, UniProt P07207 447-605); assay: ELISA
T3 chain: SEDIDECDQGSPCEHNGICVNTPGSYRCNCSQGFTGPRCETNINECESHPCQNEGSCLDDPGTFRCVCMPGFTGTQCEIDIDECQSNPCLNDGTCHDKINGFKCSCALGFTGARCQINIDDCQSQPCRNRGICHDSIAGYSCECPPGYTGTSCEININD

N21-30:Fc [3] = target: T2, N21-30:Fc; assay: ELISA; as the plate assay, at pH 7.4 in citric acid/Na2HPO4 or Tris maleate/NaOH buffer in place of Tris pH 8.0; details: both partners purified
N11-20:V5:His [4] = target: T4, N11-20:V5:His (Drosophila, UniProt P07207 447-832); assay: ELISA; 200 ng His-tagged protein adsorbed to a 96-well plate at 4°C overnight, blocked with 3% BSA; purified Fc fusion added in TBS (10 mM Tris-Cl pH 8.0, 150 mM NaCl, 1 mM CaCl2) for 2 h; detected with HRP anti-human IgG; half-maximal binding ('Kd') fitted with Prizm, said not to be a true Kd
T4 chain: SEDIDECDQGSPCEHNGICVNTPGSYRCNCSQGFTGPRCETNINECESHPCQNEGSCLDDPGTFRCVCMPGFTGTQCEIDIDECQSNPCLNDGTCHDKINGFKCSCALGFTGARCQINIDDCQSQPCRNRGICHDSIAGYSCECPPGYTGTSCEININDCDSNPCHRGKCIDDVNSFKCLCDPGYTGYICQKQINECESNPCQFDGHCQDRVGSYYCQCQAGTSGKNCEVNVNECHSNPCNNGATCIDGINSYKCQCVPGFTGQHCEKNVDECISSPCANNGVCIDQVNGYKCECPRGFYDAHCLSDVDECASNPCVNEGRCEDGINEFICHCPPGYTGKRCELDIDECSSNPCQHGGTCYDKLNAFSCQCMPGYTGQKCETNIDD

N11-20:V5:His [5] = target: T4, N11-20:V5:His; assay: ELISA; pH 7.4
N11-14spl:V5:His [6] = target: T5, N11-14spl:V5:His (Drosophila, UniProt P07207 447-605, I578T); assay: ELISA
T5 sequence: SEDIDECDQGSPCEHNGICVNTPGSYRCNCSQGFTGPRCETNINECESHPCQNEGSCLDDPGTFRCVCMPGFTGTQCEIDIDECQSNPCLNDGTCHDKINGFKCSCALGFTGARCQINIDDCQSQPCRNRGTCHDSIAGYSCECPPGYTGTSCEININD

N11-14:V5:His [7] = target: T3, N11-14:V5:His; assay: ELISA
N11-20:V5:His [8] = target: T4, N11-20:V5:His; assay: ELISA
N11-20:V5:His [9] = target: T4, N11-20:V5:His; assay: ELISA; pH 5.4
N11-14spl:V5:His [10] = target: T5, N11-14spl:V5:His; assay: ELISA; remark: listed apart in the source
N11-14:V5:His [11] = target: T3, N11-14:V5:His; assay: ELISA
N11-20:V5:His [12] = target: T4, N11-20:V5:His; assay: ELISA

B2: N26-30:Fc (Fc fusion)
chain: QTNDEDCTESSCLNGGSCIDGINGYNCSCLAGYSGANCQYKLNKCDSNPCLNGATCHEQNNEYTCHCPSGFTGKQCSEYVDWCGQSPCENGATCSQMKHQFSCKCSAGWTGKLCDVQTISCQDAADRKGLSLRQLCNNGTCKDYGNSHVCYCSQGYAGSYCQKEIDECQSQPCQNGGTCRDLIGAYECQCRQGFQGQNCELNIDD
modifications: Fc-dimerised (Fc left out); secreted from S2 cells, O-fucosylation predicted. The forward primer (Q-T-N-D-E-D-C) overlaps the reverse primer ending at Asp1025, so the printed Gln1000 is Gln1020
- Kd (N11-14:V5:His [2]): 2.81 nM

B6: N21-30:Fc (Fc fusion)
chain: ETNIDDCVTNPCGNGGTCIDKVNGYKCVCKVPFTGRDCESKMDPCASNRCKNEAKCTPSSNFLDFSCTCKLGYTGRYCDEDIDECSLSSPCRNGASCLNVPGSYRCLCTKGYEGRDCAINTDDCASFPCQNGGTCLDGIGDYSCLCVDGFDGKHCETDINECLSQPCQNGATCSQYVNSYTCTCPLGFSGINCQTNDEDCTESSCLNGGSCIDGINGYNCSCLAGYSGANCQYKLNKCDSNPCLNGATCHEQNNEYTCHCPSGFTGKQCSEYVDWCGQSPCENGATCSQMKHQFSCKCSAGWTGKLCDVQTISCQDAADRKGLSLRQLCNNGTCKDYGNSHVCYCSQGYAGSYCQKEIDECQSQPCQNGGTCRDLIGAYECQCRQGFQGQNCELNIDD
- Kd (N11-14spl:V5:His [10]): 28.9 nM
- Kd (N11-14:V5:His [11]): 21.3 nM
- Kd (N11-20:V5:His [5]): 16.4 nM
- Kd (N11-20:V5:His [8]): 27.5 nM
- Kd (N11-20:V5:His [12]): 4.5 nM
- Kd (N11-14:V5:His [2]): 5.42 nM
- Kd (N11-20:V5:His [9]): 34 nM

B7: N21-25:Fc (Fc fusion)
chain: ETNIDDCVTNPCGNGGTCIDKVNGYKCVCKVPFTGRDCESKMDPCASNRCKNEAKCTPSSNFLDFSCTCKLGYTGRYCDEDIDECSLSSPCRNGASCLNVPGSYRCLCTKGYEGRDCAINTDDCASFPCQNGGTCLDGIGDYSCLCVDGFDGKHCETDINECLSQPCQNGATCSQYVNSYTCTCPLGFSGINCQTNDED
- Kd (N11-20:V5:His [12]): 2.79 nM
- Kd (N11-14:V5:His [2]): 2.77 nM

B8: N22-27:Fc (Fc fusion)
chain: KMDPCASNRCKNEAKCTPSSNFLDFSCTCKLGYTGRYCDEDIDECSLSSPCRNGASCLNVPGSYRCLCTKGYEGRDCAINTDDCASFPCQNGGTCLDGIGDYSCLCVDGFDGKHCETDINECLSQPCQNGATCSQYVNSYTCTCPLGFSGINCQTNDEDCTESSCLNGGSCIDGINGYNCSCLAGYSGANCQYKLNKCDSNPCLNGATCHEQNNEYTCHCPSGFTGKQCS
- Kd (N11-14:V5:His [2]): 12.6 nM

Continued, values first:

- binding result (N21-30:V5:His): binds
- binding result (N21-30:Fc [1]): binds
B1: N11-20:V5:His (domain or fragment, Drosophila, UniProt P07207 447-832, looked up)
chain: SEDIDECDQGSPCEHNGICVNTPGSYRCNCSQGFTGPRCETNINECESHPCQNEGSCLDDPGTFRCVCMPGFTGTQCEIDIDECQSNPCLNDGTCHDKINGFKCSCALGFTGARCQINIDDCQSQPCRNRGICHDSIAGYSCECPPGYTGTSCEININDCDSNPCHRGKCIDDVNSFKCLCDPGYTGYICQKQINECESNPCQFDGHCQDRVGSYYCQCQAGTSGKNCEVNVNECHSNPCNNGATCIDGINSYKCQCVPGFTGQHCEKNVDECISSPCANNGVCIDQVNGYKCECPRGFYDAHCLSDVDECASNPCVNEGRCEDGINEFICHCPPGYTGKRCELDIDECSSNPCQHGGTCYDKLNAFSCQCMPGYTGQKCETNIDD
notes: also called EGF repeats 11-20 of the N extracellular domain; source: Drosophila Schneider cells, transfected, secreted; purified from conditioned medium (ProBond resin)

- binding result (N21-30:Fc [3]): binds
B3: N11-14:V5:His (domain or fragment, Drosophila, UniProt P07207 447-605, looked up)
chain: SEDIDECDQGSPCEHNGICVNTPGSYRCNCSQGFTGPRCETNINECESHPCQNEGSCLDDPGTFRCVCMPGFTGTQCEIDIDECQSNPCLNDGTCHDKINGFKCSCALGFTGARCQINIDDCQSQPCRNRGICHDSIAGYSCECPPGYTGTSCEININD
notes: also called N11-4:V5:His; EGF repeats 11-14; source: Drosophila Schneider cells, transfected, secreted; purified from conditioned medium (ProBond resin)

- binding result (N21-30:Fc [3]): binds
B4: N11-14spl:V5:His (domain or fragment, Drosophila, UniProt P07207 447-605, looked up)
chain: SEDIDECDQGSPCEHNGICVNTPGSYRCNCSQGFTGPRCETNINECESHPCQNEGSCLDDPGTFRCVCMPGFTGTQCEIDIDECQSNPCLNDGTCHDKINGFKCSCALGFTGARCQINIDDCQSQPCRNRGTCHDSIAGYSCECPPGYTGTSCEININD
notes: Notch, Drosophila, EGF repeats 11-14 with the I578T change of the split (spl) allele in EGF repeat 14; limits as N11-14, Ser447 to Asp605; also called split mutant; source: Drosophila Schneider cells, transfected, secreted; purified from conditioned medium (ProBond resin)

- EC50 (N11-20:V5:His [4]): 1.87 nM
- Kd (N11-20:V5:His [5]): 29.8 nM
- Kd (N11-14spl:V5:His [6]): 23.4 nM
- Kd (N11-14:V5:His [7]): 16.6 nM
- Kd (N11-20:V5:His [8]): 25.1 nM
- Kd (N11-20:V5:His [9]): 4.58 nM
B5: Dl:Fc (Fc fusion)
chain: QVHSSGSFELRLKYFSNDHGRDNEGRCCSGESDGATGKCLGSCKTRFRVCLKHYQATIDTTSQCTYGDVITPILGENSVNLTDAQRFQNKGFTNPIQFPFSFSWPGTFSLIVEAWHDTNNSGNARTNKLLIQRLLVQQVLEVSSEWKTNKSESQYTSLEYDFRVTCDLNYYGSGCAKFCRPRDDSFGHSTCSETGEIICLTGWQGDYCHIPKCAKGCEHGHCDKPNQCVCQLGWKGALCNECVLEPNCIHGTCNKPWTCICNEGWGGLYCNQDLNYCTNHRPCKNGGTCFNTGEGLYTCKCAPGYSGDDCENEIYSCDADVNPCQNGGTCIDEPHTKTGYKCHCANGWSGKMCEEKVLTCSDKPCHQGICRNVRPGLGSKGQGYQCECPIGYSGPNCDLQLDNCSPNPCINGGSCQPSGKCICPAGFSGTRCETNIDDCLGHQCENGGTCIDMVNQYRCQCVPGFHGTHCSSKVDLCLIRPCANGGTCLNLNNDYQCTCRAGFTGKDCSVDIDECSSGPCHNGGTCMNRVNSFECVCANGFRGKQCDE
